Data taken from CN101151278A.
One block for each substance: values may come before it.

Columns and labels:
大鼠FcRn (rat) = 大鼠FcRn (rat) (UniProt P13599); test: BIAcore, FcRn on CM5 chip
人FcRn (human) = 人FcRn (human) (UniProt P55899); test: BIAcore, FcRn on CM5 chip, pH 6.0
[1] = biological target: T1, CD20 on WIL2-S cells (human) (UniProt P11836); test: cell-based or functional assay
T1 sequence (looked up): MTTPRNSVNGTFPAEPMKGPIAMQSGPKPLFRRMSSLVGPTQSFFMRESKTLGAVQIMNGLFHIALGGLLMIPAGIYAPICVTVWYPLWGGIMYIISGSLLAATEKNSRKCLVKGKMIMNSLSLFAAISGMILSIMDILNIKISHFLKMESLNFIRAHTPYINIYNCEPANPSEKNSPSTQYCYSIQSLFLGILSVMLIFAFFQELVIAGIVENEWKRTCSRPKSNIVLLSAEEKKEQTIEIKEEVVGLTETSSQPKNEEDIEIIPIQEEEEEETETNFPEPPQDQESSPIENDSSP

Sequence of 大鼠FcRn (rat) (P13599 23-298 limits assumed, chain 1 of 2): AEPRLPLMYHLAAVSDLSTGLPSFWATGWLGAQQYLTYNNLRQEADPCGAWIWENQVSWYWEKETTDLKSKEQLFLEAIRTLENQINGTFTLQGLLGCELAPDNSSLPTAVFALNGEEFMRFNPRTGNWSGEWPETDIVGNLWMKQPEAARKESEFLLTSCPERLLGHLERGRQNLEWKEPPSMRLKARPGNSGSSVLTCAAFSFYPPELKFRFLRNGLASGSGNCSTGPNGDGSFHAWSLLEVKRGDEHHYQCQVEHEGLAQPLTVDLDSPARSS
Sequence of 大鼠FcRn (rat) (P07151 21-119 limits assumed, chain 2 of 2, further chain): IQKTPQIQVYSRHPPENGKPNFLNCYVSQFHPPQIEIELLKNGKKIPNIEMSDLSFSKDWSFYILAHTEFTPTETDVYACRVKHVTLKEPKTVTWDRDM

fold increase in binding vs wild-type Fc (大鼠FcRn (rat)): 10 fold
Substance: Fc变体 N434W (from UniProt P01857 114-330)

fold increase in affinity vs wild-type Fc (人FcRn (human)): 14 fold
Substance: Fc变体 N434A+E380A+T307A (from UniProt P01857 114-330) (other; other documents disagree on this pair)

ADCC on WIL2-S cells with NK cells, EC50(变体)/EC50(2H7.v16) [1]: 5.3 | ADCC on WIL2-S cells with NK cells, EC50(变体)/EC50(Rituxan) [1]: 1 | CDC on WIL2-S cells, EC50(变体)/EC50(Rituxan) [1]: 1
Substance: Rituxan (antibody)

fold increase in affinity vs wild-type Fc (人FcRn (human)): 9 fold
Substance: Fc变体 N434F (from UniProt P01857 114-330) (other; other documents disagree on this pair)
